Assay results taken from US20200078439A1.

Target: HLA-DR molecules of the vaccinated patients
Assay: cell-based or functional assay

TLGEFLKLDRERAKN [BIR-002 (Survivin 97-111: …)]
immuno-response in vaccinated patients in vivo (IFN-g ELISPOT, +/- ICS) (out of 19 patients): 16
